Results taken from paper doi:10.64898/2025.12.07.692841.
Like-named read-outs stand apart in the source and are kept apart here.

Assays:
Assay in all cases: crystal structure
[1] = target: PII-nitrogen regulatory protein NifI2 from Methanocaldococcus infernus (Methanocaldococcus infernus strain DSM 11812)
[2] = target: PII-nitrogen regulatory protein NifI2 from Methanocaldococcus infernus (Methanocaldococcus infernus strain DSM 11812); remark: listed apart in the source
[3] = target: nitrogenase reductase NifH (dimer) from Methanocaldococcus infernus (Methanocaldococcus infernus strain DSM 11812)

Substance	stoichiometry N [1]	stoichiometry N [2]	stoichiometry N [3]
PII-nitrogen regulatory protein NifI2 from Methanocaldococcus infernus (natural protein)	2	2	–
nitrogenase reductase NifH (dimer) from Methanocaldococcus infernus (enzyme)	–	–	2
